Among the data in publication PMC7867571 are stoichiometry N values, retold here.

The experiment concerns the target H. influenzae VapXD2 heterotrimer (VapD homodimer with one VapX) (Haemophilus influenzae (non-typeable, strain 86-028NP)) (UniProt P71351). Briefly: crystal structure.

As a reminder, the stoichiometry N is a count of units in the complex or per binding partner. “H. influenzae VapXD2 heterotrimer (VapD homodimer with one VapX) (from UniProt P71351 1-91; Q4QN94 1-63) (complex)” came in with a stoichiometry N of 3.
